Here are results for 15 molecules from US20190194276A1 (MAYO FOUNDATION FOR MEDICAL EDUCATION AND RESEARCH, published 2019).

For assay [1], the target named is T1, endogenous IQGAP1 (human, UniProt P46940 2-1657).
T1 construct: also called cellular IQGAP1
The assay can be described thus: GST pull-down from DU145 whole cell lysate, Western blot.

In assay [2] the target is T1, endogenous IQGAP1. The assay can be described thus: co-IP with anti-Flag from transfected LNCaP cells, Western blot.
For assay [3], the target named is T1, endogenous IQGAP1. The assay is described as follows: co-IP with anti-IQGAP1 from LNCaP cells transfected with HA-FOXO4, Western blot.
Assay [4] addresses T1, endogenous IQGAP1. The assay can be described thus: co-IP with anti-Flag from LNCaP cells expressing SFB-tagged peptides, Western blot.
Assay [5] has as its target T1, endogenous IQGAP1. The assay is described as follows: co-IP with anti-IQGAP1 from LNCaP cells transfected with HA-FOXO3, Western blot.
Assay [6] deals with T1, endogenous IQGAP1. The assay is described as follows: TAP of SFB-FOXO1 from 293T cells, LC-MS/MS.
Protocol: 24 hours after transfection, cells were lysed by NETN buffer (20 mM Tris-HCl, pH8.0, 100 mM NaCl, 1 mM EDTA, 0.5% Nonidet P-40) with 50 mM β-glycerophosphate, 10 mM NaF, and 1 μg/mL pepstatin-A at 4° C. for 3 hours. The supernatants were incubated with streptavidin sepharose beads (GE) at 4° C. overnight. The beads were washed with NETN buffer for three times and then eluted by 2 mM biotin (Sigma) for 1 hour at 4° C. twice. The elution products were incubated with S-protein agarose beads (Novagen) overnight at 4° C. and after three times wash the products bound to S-protein agarose beads were subjected to SDS-PAGE and visualized by silver staining or Code-blue staining.
Briefly, excised gel bands were cut into approximately 1 mm³ pieces. […] Gel pieces were washed and dehydrated with acetonitrile for 10 minutes followed by removal of acetonitrile. Pieces were then completely dried in a speed-vac. […] After 45 minutes, the excess trypsin solution was removed and replaced with 50 mM ammonium bicarbonate solution to just cover the gel pieces. Samples were then placed in a 37° C. room overnight. Peptides were later extracted by removing the ammonium bicarbonate solution, followed by one wash with a solution containing 50% acetonitrile and 1% formic acid. The extracts were then dried in a speed-vac (˜1 hour). The samples were then stored at 4° C. until analysis.

Numbering of substitutions follows the chain as printed. Names may count otherwise. Ends that are not written are not given here.

T1 sequence (P46940 2-1657 limits assumed): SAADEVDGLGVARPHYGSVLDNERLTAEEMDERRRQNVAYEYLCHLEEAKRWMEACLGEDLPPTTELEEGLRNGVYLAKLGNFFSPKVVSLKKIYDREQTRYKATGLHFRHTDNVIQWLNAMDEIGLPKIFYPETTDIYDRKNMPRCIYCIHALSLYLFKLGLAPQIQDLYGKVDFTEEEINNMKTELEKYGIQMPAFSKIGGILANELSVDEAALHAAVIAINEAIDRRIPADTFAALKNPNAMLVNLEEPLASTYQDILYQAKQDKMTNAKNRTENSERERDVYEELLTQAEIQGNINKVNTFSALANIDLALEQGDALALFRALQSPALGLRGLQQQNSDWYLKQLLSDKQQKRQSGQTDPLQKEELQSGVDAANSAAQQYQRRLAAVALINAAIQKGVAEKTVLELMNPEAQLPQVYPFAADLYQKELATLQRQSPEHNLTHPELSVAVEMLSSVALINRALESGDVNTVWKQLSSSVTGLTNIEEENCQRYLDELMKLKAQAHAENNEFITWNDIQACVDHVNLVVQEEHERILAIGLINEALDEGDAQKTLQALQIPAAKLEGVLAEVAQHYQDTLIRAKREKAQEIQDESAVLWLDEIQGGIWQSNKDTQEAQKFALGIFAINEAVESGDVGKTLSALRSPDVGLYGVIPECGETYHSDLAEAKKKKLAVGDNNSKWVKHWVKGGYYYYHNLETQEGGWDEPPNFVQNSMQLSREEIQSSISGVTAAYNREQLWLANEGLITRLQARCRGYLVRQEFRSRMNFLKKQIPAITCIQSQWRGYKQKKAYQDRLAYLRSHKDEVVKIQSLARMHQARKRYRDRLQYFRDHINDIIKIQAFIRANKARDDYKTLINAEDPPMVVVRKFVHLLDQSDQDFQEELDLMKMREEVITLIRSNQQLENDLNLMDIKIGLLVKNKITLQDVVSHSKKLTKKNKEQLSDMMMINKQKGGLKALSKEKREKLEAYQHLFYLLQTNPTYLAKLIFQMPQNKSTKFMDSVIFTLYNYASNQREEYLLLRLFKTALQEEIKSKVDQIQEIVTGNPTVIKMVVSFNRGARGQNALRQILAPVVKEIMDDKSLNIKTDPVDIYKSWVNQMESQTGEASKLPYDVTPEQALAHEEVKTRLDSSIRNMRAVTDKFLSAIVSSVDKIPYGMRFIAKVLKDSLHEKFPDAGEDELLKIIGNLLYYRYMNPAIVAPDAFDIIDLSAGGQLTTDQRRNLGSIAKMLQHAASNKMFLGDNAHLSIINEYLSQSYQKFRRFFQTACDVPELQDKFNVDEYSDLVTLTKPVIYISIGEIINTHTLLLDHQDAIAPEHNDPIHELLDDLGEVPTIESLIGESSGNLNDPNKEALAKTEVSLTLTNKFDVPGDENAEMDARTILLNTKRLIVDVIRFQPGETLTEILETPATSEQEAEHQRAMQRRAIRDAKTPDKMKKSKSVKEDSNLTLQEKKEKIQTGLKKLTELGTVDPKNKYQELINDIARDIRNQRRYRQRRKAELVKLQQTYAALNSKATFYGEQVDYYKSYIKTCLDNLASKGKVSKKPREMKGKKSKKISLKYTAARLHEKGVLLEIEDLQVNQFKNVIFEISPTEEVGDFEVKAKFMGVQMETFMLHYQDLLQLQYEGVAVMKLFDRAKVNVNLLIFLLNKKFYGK

B1: GST-FOXO1-2 (amino acids 149-267) (other, human, UniProt Q12778 149-267, looked up, not shown: a dimerising Fc or GST)
chain: PRKSSSSRRNAWGNLSYADLITKAIESSAEKRLTLSQIYEWMVKSVPYFKDKGDSNSSAGWKNSIRHNLSLHSKFIRVQNEGTGKSSWWMLNPEGGKSGKSPRRRAASMDNNSKFAKSR
notes: range 149-267
B1: the binding result in assay [1] was “no binding”.

B2: GST-FOXO1-5 (amino acids 488-655) (other, human, UniProt Q12778 488-655, looked up, not shown: a dimerising Fc or GST)
chain: NSRVLGQNVMMGPNSVMSTYGSQASHNKMMNPSSHTHPGHAQQTSAVNGRPLPHTVSTMPHTSGMNRLTQVKTPVQVPLPHPMQMSALGGYSSVSSCNGYGRMGLLHQEKLPSDLDGMFIERLDCDMESIIRNDLMDGDTLDFNFDNVLPNQSFPHSVKTTTHSWVSG
notes: range 488-655
Consider B2, for which, in assay [1], the binding result is recorded as “no binding”.

B3: Flag-FOXO1-537 (other, human, UniProt Q12778 1-537, looked up)
chain: MAEAPQVVEIDPDFEPLPRPRSCTWPLPRPEFSQSNSATSSPAPSGSAAANPDAAAGLPSASAAAVSADFMSNLSLLEESEDFPQAPGSVAAAVAAAAAAAATGGLCGDFQGPEAGCLHPAPPQPPPPGPLSQHPPVPPAAAGPLAGQPRKSSSSRRNAWGNLSYADLITKAIESSAEKRLTLSQIYEWMVKSVPYFKDKGDSNSSAGWKNSIRRNLSLHSKFIRVQNEGTGKSSWWMLNPEGGKSGKSPRRRAASMDNNSKFAKSRSRAAKKKASLQSGQEGAGDSPGSQFSKWPASPGSHSNDDFDNWSTFRPRTSSNASTISGRLSPIMTEQDDLGEGDVHSMVYPPSAAKMASTLPSLSEISNPENMENLLDNLNLLSSPTSLTVSTQSSPGTMMQQTPCYSFAPPNTSLNSPSPNYQKYTYGQSSMSPLPQMPIQTLQDNKSSYGGMSQYNCAPGLLKELLTSDSPPHNDIMTPVDPGVAQPNSRVLGQNVMMGPNSVMSTYGSQASHNKMMNPSSHTHPGHAQQTSAVNGR
notes: Transcription-deficient mutant that can be phosphorylated by AKT; not shown: Flag tag
Turning to B3, in assay [2], the binding result is “binds”.

B4: HA-FOXO4 (other, UniProt P98177 1-505, looked up)
chain: MDPGNENSATEAAAIIDLDPDFEPQSRPRSCTWPLPRPEIANQPSEPPEVEPDLGEKVHTEGRSEPILLPSRLPEPAGGPQPGILGAVTGPRKGGSRRNAWGNQSYAELISQAIESAPEKRLTLAQIYEWMVRTVPYFKDKGDSNSSAGWKNSIRHNLSLHSKFIKVHNEATGKSSWWMLNPEGGKSGKAPRRRAASMDSSSKLLRGRSKAPKKKPSVLPAPPEGATPTSPVGHFAKWSGSPCSRNREEADMWTTFRPRSSSNASSVSTRLSPLRPESEVLAEEIPASVSSYAGGVPPTLNEGLELLDGLNLTSSHSLLSRSGLSGFSLQHPGVTGPLHTYSSSLFSPAEGPLSAGEGCFSSSQALEALLTSDTPPPPADVLMTQVDPILSQAPTLLLLGGLPSSSKLATGVGLCPKPLEAPGPSSLVPTLSMIAPPPVMASAPIPKALGTPVLTPPTEAASQDRMPQDLDLDMYMENLECDMDNIISDLMDEGEGLDFNFEPDP
notes: Expressed in LNCaP cells; not shown: HA tag
With B4, in assay [3], the binding result is recorded as “binds”.

B5: GST-FOXO1-1 (amino acids 1-167) (other, human, UniProt Q12778 1-167, looked up, not shown: a dimerising Fc or GST)
chain: MAEAPQVVEIDPDFEPLPRPRSCTWPLPRPEFSQSNSATSSPAPSGSAAANPDAAAGLPSASAAAVSADFMSNLSLLEESEDFPQAPGSVAAAVAAAAAAAATGGLCGDFQGPEAGCLHPAPPQPPPPGPLSQHPPVPPAAAGPLAGQPRKSSSSRRNAWGNLSYAD
notes: range 1-167
Regarding B5, the binding result in assay [1] is “no binding”.

B6: SFB-FOXO1-IQBP S319 (peptide, not shown: small tags and cut ends)
peptide: NDDFDNWSTFRPRTSSNASTISGRLSPIMT
modifications: also: SFB tag, position not given here
notes: Expressed in LNCaP cells; also called wild-type counterpart
For B6, in assay [4], the binding result is listed as “binds”. Take NDDFDNWSTFRPRTSDNASTISGRLSPIMT (peptide, not shown: small tags and cut ends, also: SFB tag, position not given here, Expressed in LNCaP cells) [SFB-FOXO1-IQBP S319D]: the binding result in assay [4] is on record as “binds”.

B7: SFB-FOXO1-IQBP S319E (peptide, not shown: small tags and cut ends)
peptide: B6 peptide with S16E
modifications: also: SFB tag, position not given here
notes: Expressed in LNCaP cells; also called Flag-tagged FOXO1 IQBP(SE)
As for B7, in assay [4], the binding result was “binds”.

B8: GST-FOXO1-4 (amino acids 354-503) (other, human, UniProt Q12778 354-503, looked up, not shown: a dimerising Fc or GST)
chain: KMASTLPSLSEISNPENMENLLDNLNLLSSPTSLTVSTQSSPGTMMQQTPCYSFAPPNTSLNSPSPNYQKYTYGQSSMSPLPQMPIQTLQDNKSSYGGMSQYNCAPGLLKELLTSDSPPHNDIMTPVDPGVAQPNSRVLGQNVMMGPNSV
notes: range 354-503
With B8, the binding result in assay [1] is recorded as “no binding”.

B9: HA-FOXO3 (other, UniProt O43524 1-673, looked up)
chain: MAEAPASPAPLSPLEVELDPEFEPQSRPRSCTWPLQRPELQASPAKPSGETAADSMIPEEEDDEDDEDGGGRAGSAMAIGGGGGSGTLGSGLLLEDSARVLAPGGQDPGSGPATAAGGLSGGTQALLQPQQPLPPPQPGAAGGSGQPRKCSSRRNAWGNLSYADLITRAIESSPDKRLTLSQIYEWMVRCVPYFKDKGDSNSSAGWKNSIRHNLSLHSRFMRVQNEGTGKSSWWIINPDGGKSGKAPRRRAVSMDNSNKYTKSRGRAAKKKAALQTAPESADDSPSQLSKWPGSPTSRSSDELDAWTDFRSRTNSNASTVSGRLSPIMASTELDEVQDDDAPLSPMLYSSSASLSPSVSKPCTVELPRLTDMAGTMNLNDGLTENLMDDLLDNITLPPSQPSPTGGLMQRSSSFPYTTKGSGLGSPTSSFNSTVFGPSSLNSLRQSPMQTIQENKPATFSSMSHYGNQTLQDLLTSDSLSHSDVMMTQSDPLMSQASTAVSAQNSRRNVMLRNDPMMSFAAQPNQGSLVNQNLLHHQHQTQGALGGSRALSNSVSNMGLSESSSLGSAKHQQQSPVSQSMQTLSDSLSGSSLYSTSANLPVMGHEKFPSDLDLDMFNGSLECDMESIIRSELMDADGLDFNFDSLISTQNVVGLNVGNFTGAKQASSQSWVPG
notes: as for B4
Take B9: the binding result in assay [5] is “binds”.

B10: Flag-FOXO1-A3 (T24A/S256A/S319A) (other, human, UniProt Q12778 1-655, looked up)
chain: MAEAPQVVEIDPDFEPLPRPRSCAWPLPRPEFSQSNSATSSPAPSGSAAANPDAAAGLPSASAAAVSADFMSNLSLLEESEDFPQAPGSVAAAVAAAAAAAATGGLCGDFQGPEAGCLHPAPPQPPPPGPLSQHPPVPPAAAGPLAGQPRKSSSSRRNAWGNLSYADLITKAIESSAEKRLTLSQIYEWMVKSVPYFKDKGDSNSSAGWKNSIRHNLSLHSKFIRVQNEGTGKSSWWMLNPEGGKSGKSPRRRAAAMDNNSKFAKSRSRAAKKKASLQSGQEGAGDSPGSQFSKWPASPGSHSNDDFDNWSTFRPRTSANASTISGRLSPIMTEQDDLGEGDVHSMVYPPSAAKMASTLPSLSEISNPENMENLLDNLNLLSSPTSLTVSTQSSPGTMMQQTPCYSFAPPNTSLNSPSPNYQKYTYGQSSMSPLPQMPIQTLQDNKSSYGGMSQYNCAPGLLKELLTSDSPPHNDIMTPVDPGVAQPNSRVLGQNVMMGPNSVMSTYGSQASHNKMMNPSSHTHPGHAQQTSAVNGRPLPHTVSTMPHTSGMNRLTQVKTPVQVPLPHPMQMSALGGYSSVSSCNGYGRMGLLHQEKLPSDLDGMFIERLDCDMESIIRNDLMDGDTLDFNFDNVLPNQSFPHSVKTTTHSWVSG
notes: Expressed in LNCaP cells; also called triple mutant; not shown: Flag tag
With B10, the binding result in assay [2] was “no binding”.

B11: SFB-tagged FOXO1 (other, human, UniProt Q12778 1-655, looked up)
chain: B10 chain with A24T, A256S, A319S
notes: also called SFB-FOXO1; not shown: about 12 kDa, 119 amino acid
As to B11, in assay [6], the binding result is given as “binds”.

B12: Flag-FOXO1-S256A (other, human, UniProt Q12778 1-655, looked up)
chain: B10 chain with A24T, A319S
notes: Expressed in LNCaP cells; not shown: Flag tag
As to B12, in assay [2], the binding result was “binds”.

B13: Flag-FOXO1-S319A (other, human, UniProt Q12778 1-655, looked up)
chain: B10 chain with A24T, A256S
notes: as for B12
In the case of B13, the binding result in assay [2] was “no binding”.

B14: Flag-FOXO1-T24A (other, human, UniProt Q12778 1-655, looked up)
chain: B10 chain with A256S, A319S
notes: as for B12
B14: in assay [2], the binding result is recorded as “binds”.
